Positions count from the first letter of the chain named. Names and notes keep the numbering of the source.
B1: PR000067 (antibody, human IgG1, kappa, N297A, V domains shown)
VH: EVQLVESGGGLVQPGGSLRLSCAASGFTFSSYWMSWVRQAPGKGLEWVANIKQDGSEKYYVDSVKGRFTISRDNAKNSLYLQMNSLRAEDTAVYYCARDRAVAGAFDIWGQGTMVTVSS
VL: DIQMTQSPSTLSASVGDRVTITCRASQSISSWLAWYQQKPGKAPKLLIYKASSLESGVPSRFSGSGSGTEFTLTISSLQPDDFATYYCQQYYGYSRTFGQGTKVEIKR
notes: fully human recombinant antibody, human IgG1 heavy chain, kappa light chain (IGKV1-5); also called 73G3G9B11
B2: PR000070 (antibody, human IgG1, kappa, N297A, V domains shown)
VH: B1 VH
VL: DIQMTQSPSTLSASVGDRVTVTCRASQSIYIWLAWYQQKPGKAPNLLIYKASSLETGVPSRFSGSGSGTEFTLTISSLQPDDFATYYCQQYYGSSRTFGQGTKVEIKR
notes: fully human recombinant antibody, human IgG1 heavy chain, kappa light chain (IGKV1-5); also called 91G3H5H3
B3: PR000068 (antibody, human IgG1, kappa, N297A, V domains shown)
VH: B1 VH with A101P, F106S
VL: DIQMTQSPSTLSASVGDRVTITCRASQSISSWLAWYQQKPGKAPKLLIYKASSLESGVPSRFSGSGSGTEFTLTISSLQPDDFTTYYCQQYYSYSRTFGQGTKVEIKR
notes: fully human recombinant antibody, human IgG1 heavy chain, kappa light chain (IGKV1-5); also called 82F8H7E1
B4: PR000069 (antibody, human IgG1, kappa, N297A, V domains shown)
VH: B1 VH with Y94F, D107A
VL: B2 VL with V21I, K39H, N45K, T56S, Y87F, S94Y, K107R
notes: fully human recombinant antibody, human IgG1 heavy chain, kappa light chain (IGKV1-5); also called 85C5E4G3
B5: PR000066 (antibody, human IgG1, kappa, N297A, V domains shown)
VH: B1 VH with F106S, D107A, I108F
VL: B2 VL with D17H, V21I, Y30S, N45D, S65N
notes: fully human recombinant antibody, human IgG1 heavy chain, kappa light chain (IGKV1-5); also called 69B8G8C2
B6: PR000072 (antibody, human IgG1, kappa, N297A, V domains shown)
VH: B1 VH with V61G, D90E, F106S
VL: B2 VL with V21I, Y30S, I31S, S94Y
notes: fully human recombinant antibody, human IgG1 heavy chain, kappa light chain (IGKV1-5); also called 98E11H1C9
B7: PR000064 (antibody, human IgG1, kappa, N297A, V domains shown)
VH: B1 VH
VL: B2 VL with A13T, V21I, Y30S, N45K, T56S, S94Y
notes: fully human recombinant antibody, human IgG1 heavy chain, kappa light chain (IGKV1-5); also called 63G11H3G9
B8: PR000071 (antibody, human IgG1, kappa, N297A, V domains shown)
VH: B1 VH with L79Q, F106S
VL: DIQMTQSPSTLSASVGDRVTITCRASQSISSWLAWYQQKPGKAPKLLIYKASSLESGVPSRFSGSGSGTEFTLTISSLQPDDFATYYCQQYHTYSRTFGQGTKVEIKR
notes: fully human recombinant antibody, human IgG1 heavy chain, kappa light chain (IGKV1-5); also called 95C7C4A9
B9: PR000265 (antibody, human IgG1, kappa, N297A)
heavy: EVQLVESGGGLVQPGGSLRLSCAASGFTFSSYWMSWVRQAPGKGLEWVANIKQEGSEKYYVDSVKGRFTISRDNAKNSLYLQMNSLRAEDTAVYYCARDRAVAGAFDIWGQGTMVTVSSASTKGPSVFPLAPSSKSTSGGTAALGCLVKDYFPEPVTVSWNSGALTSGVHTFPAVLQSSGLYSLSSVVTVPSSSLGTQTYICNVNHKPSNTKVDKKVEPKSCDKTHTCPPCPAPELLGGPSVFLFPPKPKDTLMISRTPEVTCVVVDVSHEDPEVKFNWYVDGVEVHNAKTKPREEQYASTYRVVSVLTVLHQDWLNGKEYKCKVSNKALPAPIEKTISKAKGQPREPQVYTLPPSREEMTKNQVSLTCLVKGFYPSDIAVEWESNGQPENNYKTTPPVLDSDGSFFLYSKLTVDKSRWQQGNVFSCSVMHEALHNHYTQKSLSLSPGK
light: DIQMTQSPSTLSASVGDRVTVTCRASQSIYIWLAWYQQKPGKAPNLLIYKASSLETGVPSRFSGSGSGTEFTLTISSLQPDDFATYYCQQYYGSSRTFGQGTKVEIKRTVAAPSVFIFPPSDEQLKSGTASVVCLLNNFYPREAKVQWKVDNALQSGNSQESVTEQDSKDSTYSLSSTLTLSKADYEKHKVYACEVTHQGLSSPVTKSFNRGEC
notes: heavy chain human IgG1 (N297A)
B10: PR000266 (antibody, human IgG1, kappa, N297A, V domains shown)
VH: B1 VH with G55A
VL: B2 VL
notes: as for B9
B11: PR000267 (antibody, human IgG1, kappa, N297A, V domains shown)
VH: B1 VH with D54E, V61G, D90E, F106S
VL: B2 VL with V21I, Y30S, I31S, S94Y
notes: as for B9
B12: PR000268 (antibody, human IgG1, kappa, N297A, V domains shown)
VH: B1 VH with G55A, V61G, D90E, F106S
VL: B2 VL with V21I, Y30S, I31S, S94Y
notes: as for B9
B13: PR000262 (antibody, human IgG1, kappa, N297A, V domains shown)
VH: B1 VH with G55A, F106S, D107A, I108F
VL: B2 VL with D17H, V21I, Y30S, N45D
notes: PTM variant of PR000066 (H:G55A); heavy chain human IgG1 (N297A)
B14: PR000261 (antibody, human IgG1, kappa, N297A, V domains shown)
VH: B1 VH with D54E, F106S, D107A, I108F
VL: B2 VL with D17H, V21I, Y30S, N45D
notes: PTM variant of PR000066 (H:D54E); heavy chain human IgG1 (N297A)
B15: PR000263 (antibody, human IgG1, kappa, N297A, V domains shown)
VH: B1 VH with D54E, Y94F, D107A
VL: B2 VL with V21I, K39H, N45K, T56S, Y87F, S94Y, K107R
notes: as for B9
B16: PR000264 (antibody, human IgG1, kappa, N297A, V domains shown)
VH: B1 VH with G55A, Y94F, D107A
VL: B2 VL with V21I, K39H, N45K, T56S, Y87F, S94Y, K107R
notes: as for B9
B17: PR000065 (antibody, human IgG1, kappa, N297A, V domains shown)
VH: B1 VH
VL: B2 VL with V21I, Y30F
notes: fully human recombinant antibody, human IgG1 heavy chain, kappa light chain (IGKV1-5); also called 67C1F7G6

biological target: T1, human PD-L1 on Hep3B cells co-expressing human PD-L1 and OS8 (human, UniProt Q9NZQ7 19-290); assay: cell-based or functional assay
T1 sequence (Q9NZQ7 19-290): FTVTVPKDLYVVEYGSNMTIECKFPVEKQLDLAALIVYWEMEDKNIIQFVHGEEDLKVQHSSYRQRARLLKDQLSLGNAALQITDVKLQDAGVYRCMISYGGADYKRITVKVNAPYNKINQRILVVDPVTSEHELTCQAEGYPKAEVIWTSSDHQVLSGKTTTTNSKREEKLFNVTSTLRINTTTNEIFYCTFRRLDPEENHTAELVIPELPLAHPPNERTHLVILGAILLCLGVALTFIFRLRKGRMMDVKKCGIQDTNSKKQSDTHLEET

Binder | EC50 (nM), PD-1 / NFAT-luciferase reporter [nM] | Maximum fluorescence value (RLU)
B1 | 0.682 | 79800
B2 | 0.269 | 82700
B3 | 0.603 | 83300
B4 | 0.271 | 83300
B5 | 0.292 | 85900
B6 | 0.293 | 78000
B7 | 0.533 | 81600
B8 | 2.71 | 79700

biological target: T1, human PD-L1 on Hep3B cells …; assay: cell-based or functional assay; remark: another data set of the same source

Binder | EC50 (nM), PD-1 / NFAT-luciferase reporter [nM] | Maximum fluorescence value (RLU)
B9 | 0.533 | 50700
B10 | 0.68 | 48400
B11 | 0.796 | 43000
B12 | 0.759 | 45500

biological target: T2, Human PD-L1 (Acrobiosystems, PD1-H5229) (human, UniProt Q9NZQ7 19-238); assay: ELISA, coated human PD-L1
T2 construct: bought reagent; also called human PD-L1 protein
T2 sequence (Q9NZQ7 19-238 limits assumed): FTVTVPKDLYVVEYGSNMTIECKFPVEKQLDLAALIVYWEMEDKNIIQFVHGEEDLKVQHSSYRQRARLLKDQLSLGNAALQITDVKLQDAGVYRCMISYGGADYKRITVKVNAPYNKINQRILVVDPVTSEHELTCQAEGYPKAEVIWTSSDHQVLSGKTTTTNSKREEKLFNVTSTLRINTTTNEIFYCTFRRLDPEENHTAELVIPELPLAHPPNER

Binder | EC50 [nM]
B9 | 0.0373
B10 | 0.0415
B2 | 0.0641
B13 | 0.0338
B14 | 0.0385
B15 | 0.0321
B16 | 0.0343
B11 | 0.0462
B4 | 0.0637
B12 | 0.0412
B5 | 0.0189
B6 | 0.0474

biological target: T3, human PD-L1 on CHO-K1 cells (CHO-K1/hPD-L1, Nanjing Genscript, M00543) (human, UniProt Q9NZQ7 19-290); assay: flow cytometry on CHO-K1/hPD-L1 cells
T3 construct: whole, on cells; also called CHO-K1 cells overexpressing human PD-L1; human PD-L1 on the cell surface
T3 sequence (Q9NZQ7 19-290, one chain of several): as the sequence (Q9NZQ7 19-290) above

Binder | EC50 [nM] | MFI maximum value [MFI]
B1 | 0.456 | 7340
B17 | 0.412 | 7660
B2 | 0.21 | 7790
B3 | 0.326 | 7640
B4 | 0.312 | 7530
B5 | 0.255 | 7860
B6 | 0.292 | 7630
B7 | 0.417 | 7880
B8 | 0.521 | 6890

biological target: T4, cynomolgus PD-L1 on CHO-K1 cells (CHO-K1/cynoPD-L1, Nanjing Genscript, M00573) (cynomolgus, UniProt G7PSE7 19-290); assay: flow cytometry on CHO-K1/cynoPD-L1 cells
T4 construct: also called CHO-K1 cells overexpressing cynomolgus PD-L1
T4 sequence (G7PSE7 entry or part of it limits assumed, one chain of several): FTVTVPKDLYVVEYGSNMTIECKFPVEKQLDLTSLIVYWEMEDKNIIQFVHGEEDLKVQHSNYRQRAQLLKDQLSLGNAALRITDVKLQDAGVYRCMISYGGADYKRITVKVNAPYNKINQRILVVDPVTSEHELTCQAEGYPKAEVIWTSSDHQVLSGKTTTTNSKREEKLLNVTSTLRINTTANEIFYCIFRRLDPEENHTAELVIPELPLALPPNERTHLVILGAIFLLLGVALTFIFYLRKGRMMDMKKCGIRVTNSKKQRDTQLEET

Binder | EC50 [nM] | MFI maximum value [MFI]
B9 | 0.451 | 22600
B10 | 0.562 | 22400
B11 | 0.775 | 22400
B12 | 0.759 | 22200

biological target: T5, Human PD-L1 (Acrobiosystems, EP-101-96tests, A001-214) (human, UniProt Q9NZQ7 19-238); assay: competition ELISA: hPD-1-Biotin binding to coated hPD-L1
T5 construct: bought reagent; also called human PD-L1 protein
T5 sequence (Q9NZQ7 19-238 limits assumed): as the sequence (Q9NZQ7 19-238 limits assumed) above

Binder | IC50 [nM] | Maximum inhibition rate (%)
B1 | 0.333 | 92.9
B17 | 0.432 | 99
B2 | 0.2 | 90.6
B3 | 0.288 | 91.6
B4 | 0.313 | 90.7
B5 | 0.35 | 93
B6 | 0.237 | 89.8
B7 | 0.313 | 91.1
B8 | 0.448 | 89

biological target: T6, Human PD-L1-hFc protein (Acrobiosystems, PD1-H5258) (human, UniProt Q9NZQ7 19-238); assay: competition ELISA: hB7-1-Biotin binding to coated hPD-L1-hFc
T6 construct: bought reagent; not shown: human Fc (hFc)
T6 sequence (Q9NZQ7 19-238 limits assumed): as above

Binder | IC50 [nM] | Maximum inhibition rate (%)
B1 | 0.153 | 36.9
B17 | 0.312 | 43.8
B2 | 0.305 | 39.9
B3 | 0.199 | 35
B4 | 0.28 | 33
B5 | 0.198 | 47.2
B6 | 0.253 | 47.6
B7 | 0.284 | 35.9
B8 | 0.351 | 37.5

biological target: T7, human PD-L1 protein with histidine tag (NovoProtein, C315) (human, UniProt Q9NZQ7 19-239, limits assumed, biotinylated with EZ-Link Sulfo-NHS-LC-Biotin in the epitope competition experiments (Examples 8 and 20); not biotinylated in the affinity experiments); assay: BLI (Octet), antibody on AHC sensor, antigen 60 nM, 1:1 local fit
T7 construct: bought reagent; also called biotinylated PD-L1 protein; not shown: histidine tag
T7 sequence (Q9NZQ7 19-239 limits assumed): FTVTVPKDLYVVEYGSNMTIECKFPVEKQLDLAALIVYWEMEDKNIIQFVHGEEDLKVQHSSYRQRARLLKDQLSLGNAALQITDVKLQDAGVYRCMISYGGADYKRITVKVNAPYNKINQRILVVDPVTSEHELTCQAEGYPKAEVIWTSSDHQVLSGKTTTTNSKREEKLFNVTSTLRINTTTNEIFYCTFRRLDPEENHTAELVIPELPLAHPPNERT

Binder | Kd [nM] | koff [s⁻¹] | kon [M⁻¹ s⁻¹]
B9 | 0.409 | 0.000106 | 260000
B10 | 0.349 | 9.62e-05 | 276000

biological target: T3, human PD-L1 on CHO-K1 cells …; assay: flow cytometry competition: biotin-hPD-1 binding to CHO-K1/hPD-L1 cells

Binder | IC50 [nM] | Maximum inhibition rate (%)
B1 | 0.894 | 91.2
B2 | 0.449 | 90.7
B3 | 0.853 | 91.4
B4 | 0.836 | 92.3
B5 | 0.539 | 91.8
B6 | 0.746 | 92.5
B7 | 0.938 | 91.5
B8 | 0.987 | 91.6

biological target: T3, human PD-L1 on CHO-K1 cells …; assay: as above; remark: another data set of the same source

Binder | IC50 [nM] | Maximum inhibition rate (%)
B9 | 0.604 | 93.6
B10 | 0.838 | 91.5
B11 | 1.04 | 91
B12 | 1.16 | 91.3

biological target: T7, human PD-L1 protein with histidine tag …; assay: BLI (Octet), antibody on AHC sensor, antigen 50~1.56 nM, 1:1 global fit

Binder | Kd [nM] | koff [s⁻¹] | kon [M⁻¹ s⁻¹]
B9 | 0.106 | 7.09e-05 | 669000

— patent US20260258137A1 (HARBOUR BIOMED SHANGHAI, published 2026)
